This is an account of results in US20230029835A1 (KEYMED BIOSCIENCES, published 2023).

Where two headings read alike, the source gives them in different places.

For test [1], the target named is T1, human TSLP recombinant protein (human, UniProt Q969D9 29-159, biotinylated in the blocking and cell-binding assays (sites not given)). As to the kind of experiment: cell-based or functional assay.
The target in test [2] is T1, human TSLP recombinant protein. Nature of the test: competition ELISA, biotin-human TSLP to coated human TSLPR-Fc.
Procedure: (§1) Human TSLPR recombinant protein was coated onto a 96-well microtiter plate at 1 μg/mL in carbonate buffer overnight at 4° C. The plate was washed three times with PBS and blocked by adding 200 μL/well of PBS containing 2% skim milk for 1 hour. […] The 96-well plate was washed three times with PBS, and 100 μL of the incubated mixture was added to each well and incubated for 1 hour at room temperature. After washing with PBST and PBS three times, respectively, 100 μL of SA-HRP was added to each well and incubated at room temperature for 30 minutes in the dark. After washing with PBST and PBS three times, respectively, 100 μL of TMB substrate was added to well for color development at 37° C. for 10 minutes, the reaction was terminated with 50 μL of 2M sulfuric acid solution per well, and the absorbance was read at a wavelength of 450 nm.
The target is the same in test [3]. Nature of the test: SPR BIAcore T200, antibody captured on Protein A, human TSLP injected. (In general: In SPR one partner is held on a chip, and binding of the other changes the refractive index at the surface.)
Procedure: After each injection cycle, the Protein A chip surface was regenerated with regeneration buffer 10 mM glycine (pH 2.0) at a flow rate of 30 μL/min.
The association rate constant (ka) and dissociation rate constant (kd) and equilibrium dissociation constant KD were analyzed by fitting the resulting data to a Langmuir 1:1 kinetics theoretical model using BIAevaluation software.
In test [4] the target is T2, Cynomolgus macaques TSLP recombinant protein (Cynomolgus macaques, UniProt Q969D9 29-159 (human entry), limits assumed, biotinylated in the blocking assays (sites not given)).
T2 construct: also called cyTSLP; biotinylated Cynomolgus macaques TSLP protein
T2 chain: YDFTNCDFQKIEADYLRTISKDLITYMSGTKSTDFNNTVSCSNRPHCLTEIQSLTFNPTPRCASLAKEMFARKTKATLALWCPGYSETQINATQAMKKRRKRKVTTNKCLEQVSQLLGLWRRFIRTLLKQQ
Nature of the test: competition ELISA, biotin-cynomolgus TSLP to coated cynomolgus TSLPR-Fc. In general terms: ELISA stands for enzyme-linked immunosorbent assay.

For test [5], the target named is T1, human TSLP recombinant protein. As to the kind of experiment: ELISA on coated human TSLP.
Procedure: (§2) The plate was washed three times with PBS and blocked by adding 200 μL/well of PBS containing 2% skim milk for 1 hour. […] After washing with PBST and PBS three times, respectively, 100 μL of TMB substrate was added to each well for color development at 37° C. for 10 minutes, the reaction was terminated with 50 μL of 2M sulfuric acid solution per well, and the absorbance was read at a wavelength of 450 nm.
In test [6] the target is T2, Cynomolgus macaques TSLP recombinant …. As to the kind of experiment: ELISA on coated cynomolgus TSLP.
Procedure: as §2
Test [7] deals with T1, human TSLP recombinant protein. As to the kind of experiment: cell-based or functional assay. This is another data set of the same source.
The target is the same in test [8]. As to the kind of experiment: cell-based or functional assay. The source holds these as a separate data set.
Test [9] has as its target T2, Cynomolgus macaques TSLP recombinant …. As to the kind of experiment: competition ELISA, biotin-cynomolgus TSLP to coated cynomolgus TSLPR-Fc.
Procedure: Cynomolgus macaques TSLPR recombinant protein was coated onto a 96-well microtiter plate at 1 g/mL in carbonate buffer overnight at 4° C. The plate was washed three times with PBS and blocked by adding 200 μL/well of PBS containing 2% skim milk for 1 hour. […] The 96-well plate was washed three times with PBS, and 100 μL of the incubated mixture was added to each well and incubated for 1 hour at room temperature. After washing with PBST and PBS three times, respectively, 100 μL of SA-HRP was added to each well and incubated at room temperature for 30 minutes in the dark. After washing with PBST and PBS three times, respectively, 100 μL of TMB substrate was added to well for color development at 37° C. for 10 minutes, the reaction was terminated with 50 μL of 2M sulfuric acid solution per well, and the absorbance was read at a wavelength of 450 nm.
For test [10], the target named is T1, human TSLP recombinant protein. Nature of the test: competition ELISA, biotin-human TSLP to coated human TSLPR-Fc. The source holds these as a separate data set.
Procedure: as §1
Test [11] has the same target. Nature of the test: flow cytometry competition, biotin-human TSLP to Ba/F3-hTSLPR-IL7Rα cells.
Procedure: Ba/F3-hTSLPR-IL7Rα cells were washed three times with PBS, centrifuged at 300 g for 3 minutes, and blocked with 3% BSA/PBS for 30 minutes. The cells were resuspended and added to a 96-well U-plate at 5×10⁴/well.
The target is the same in test [12]. As to the kind of experiment: ELISA on coated human TSLP. This is another data set of the same source.
Procedure: as §2
Test [13] has as its target T2, Cynomolgus macaques TSLP recombinant …. Nature of the test: ELISA on coated cynomolgus TSLP.
Procedure: as §2

B1: 79D6 chimeric antibody (antibody, V domains shown)
VH: QVQLQQSGAELVMPGASVKMSCKASGYTFTGYWMHWVKQRPGQGLEWIGTIDNSDSDTTYNQKFKGKVTLTVDESSSTAYMQLSSLTSEDSAVYYCARSVDGYLDYWGQGTTLTVSS
VL: DIQMIQSPASLSASVGETVTITCRASENIYSYLAWYQQIQGKSPQLLVYYAKTLPEGVPSRFSGSGSGTQFSLKINSLQPEDFGSYYCQHHYGTPWTFGGGTKLEIK
For the molecule B1, in test [1], the “Inhibition IC50 of STAT5 reporter gene” value stood at 9.61 nM. Also, in [2], the half-maximal inhibitory concentration (IC50) was 1.35 nM. In addition, in test [3], the Kd worked out at 0.0204 nM, the koff amounted to 8.77e-05 s⁻¹ and the kon stood at 4.31e+06 M⁻¹ s⁻¹. In addition, the IC50 in test [4] was found to be 0.31 nM. For the same molecule, the EC50 in [5] was found to be 0.58 nM. The EC50 in [6] came to 0.73 nM.

B2: Murine anti-39G5 (mAb39G5) (antibody, V domains shown)
VH: QVQLLQSGPQLVRPGASVKISCKASGYSFISYWIHWVKQRPGQGLEWIGIIDPSDSDTSLNQKFKDKATLTVDKSSTTAYIQLSSPTSEDSAVYYCARSLDGYYDYWGQGTTLTVSS
VL: DIQMTQSPASLSASVGETVTITCRASENIYSYLAWYQQKQGKSPQLLVYNARTLPEGVPSRFSGSGSGTQFSLKINSLQPEDFGIYYCQHHYTTPWTFGGGTKLEIK
notes: also called murine antibody 39G5
Take B2: the “STAT5 signal inhibition IC50” value in test [7] was determined as 4.92 nM. The “Inhibition of Cell Proliferation IC50” value in test [8] was determined as 58.9 nM. Also, the 50% inhibitory concentration (IC50) in [9] is 1.6 nM; in test [10], 1.95 nM; in test [11] it was 0.36 nM.

B3: Murine anti-71G4 (mAb71G4) (antibody, V domains shown)
VH: QVQLQQSGAELVMPGASVKMSCKASGYTFTDYWMHWVKQRPGQGLEWIGTIDNSDSDTTYNQKFKGKVTLTVDESSSTAYMQLSSLTSEDSAVYYCARSVDGYLDYWGQGTTLTVSS
VL: EIQMTQSPASLSASVGETVTITCRTSENIYSYLAWYQQKQGKSPQLLVYFAKTLTDGVPSRLSGSGSGTQFSLKINSLQPEDFGSYYCQHHYGTPWTFGGGTKLEIK
notes: also called murine antibody 71G4
As to B3, the “STAT5 signal inhibition IC50” value in test [7] was found to be 1.14 nM. The “Inhibition of Cell Proliferation IC50” value in [8] was found to be 30.7 nM. The IC50 in test [9] is 0.47 nM; in test [10] it was 1.98 nM; in test [11], 0.27 nM.

B4: Ab20 (antibody, V domains shown)
VH: QVQLVQSGAEVKKPGSSVKVSCKASGYTFTDYWMHWVRQAPGQGLEWMGTIDNSDSDTTYNQKFQGRVTLTVDTSTSTAYMELSSLRSEDTAVYYCARSVDGYLDYWGQGTLVTVSS
VL: DIQMTQSPSSLSASVGDRVTITCRTSENIYSYLAWYQQKPGKAPKLLIYFAKTLTDGVPSRFSGSGSGTDFTLTISSLQPEDFATYYCQHHYGTPWTFGQGTKVEIK
notes: Humanized; also called h71G4VHv2/h71G4VKv1
Consider B4, for which the figures for the concentration for a half-maximal effect (EC50) in [12] and in test [13] were 0.17 nM and 0.27 nM, respectively. For the same molecule, in test [8], the “Inhibition of Cell Proliferation IC50” value was 46.2 nM. The IC50 in test [9] was found to be 1.32 nM; in test [10], 2 nM; in [11] it was 0.33 nM.

B5: Ab19 (antibody, V domains shown)
VH: QVQLVQSGAEVKKPGSSVKVSCKASGYTFTDYWMHWVRQAPGQGLEWMGTIDNSDSDTTYNPSFQGHVTISADKSISTAYLQWSSLKASDTAMYYCARSVDGYLDYWGQGTLVTVSS
VL: DIQMTQSPSSLSASVGDRVTITCRTSENIYSYLAWYQQKPGKAPKLLIYFAKTLTDGVPSRFSGSGSGTDFTLTISSLQPEDFATYYCQHHYGTPWTFGQGTKVEIK
notes: Humanized; also called h71G4VHv1/h71G4VKv1
Consider B5, for which the EC50 was 0.27 nM in [12] and 0.65 nM in test [13]. Also, the concentration for half-maximal inhibition (IC50) in [9] amounted to 1.76 nM; in test [10], 2.74 nM; in [11], 0.45 nM.

B6: Ab21 (antibody, V domains shown)
VH: QVQLVQSGAEVKKPGSSVKVSCKASGYTFTDYWMHWVRQAPGQGLEWMGTIDNSDSDTTYNQKFQGRVTMTRDTSTSTVYMELSSLRSEDTAVYYCARSVDGYLDYWGQGTLVTVSS
VL: DIQMTQSPSSLSASVGDRVTITCRTSENIYSYLAWYQQKPGKAPKLLIYFAKTLTDGVPSRFSGSGSGTDFTLTISSLQPEDFATYYCQHHYGTPWTFGQGTKVEIK
notes: Humanized; also called h71G4VHv3/h71G4VKv1
In the case of B6, the EC50 amounted to 0.28 nM in test [12] and 0.54 nM in test [13]. Further, in test [8], the “Inhibition of Cell Proliferation IC50” value is 178 nM. Moreover, the figures for the half-inhibitory concentration (IC50) in test [9], in [10] and in [11] were 1.08 nM, 2.18 nM and 0.36 nM, respectively.

B7: Ab25 (antibody, V domains shown)
VH: QVQLVQSGAEVKKPGSSVKVSCKASGYTFTDYWMHWVRQAPGQGLEWMGTIDNSDSDTSLNQKFQGRVTLTVDTSTSTAYMELSSLRSEDTAVYYCARSLDGYYDYWGQGTLVTVSS
VL: DIQMTQSPSSLSASVGDRVTITCRTSENIYSYLAWYQQKPGKAPKLLIYFAKTLTDGVPSRFSGSGSGTDFTLTISSLQPEDFATYYCQHHYGTPWTFGQGTKVEIK
notes: Humanized; also called h39G5VHv6/h71G4VKv1
Take B7: the EC50 worked out at 0.27 nM in test [12] and 1.16 nM in test [13]. Besides, the IC50 in [9] turned out to be 0.85 nM; in test [10], 1.82 nM; in test [11] it was 0.35 nM.

B8: 76A8 chimeric antibody (antibody, V domains shown)
VH: QVQLQQSGPQLVRPGASVKISCKASGYSFTSYWMHWVKQRPGQGLEWIGLIDPSDSETGLNQRFKDKATLTVDNPSSTAYMQLSSPTSEDSAVYYCARSLDGYYDYWGQGTTLTVSS
VL: DIQMIQSPASLSASVGETVTITCRASGNIHNYLAWYQQKQGKSPQLLVYNAKTLADGVPSRFSGSGSGTQYSLKINSLQPEDFGSYYCQHFWSTPWTFGGGTRLEIK
Take B8: in [1], the “Inhibition IC50 of STAT5 reporter gene” value is 9.78 nM. The IC50 in [2] amounted to 1.42 nM. Further, in test [3], the dissociation constant (Kd) stood at 0.026 nM, the koff was determined as 8.36e-05 s⁻¹ and the association rate constant (kon) was found to be 3.22e+06 M⁻¹ s⁻¹. Besides, in test [4], the 50% inhibitory concentration (IC50) turned out to be 0.73 nM. Also, the EC50 in test [5] turned out to be 0.26 nM. In [6], the EC50 was 0.47 nM.

B9: 80E11 chimeric antibody (antibody, V domains shown)
VH: QVQLQQSGPQLVRPGASVKISCKASGYSFTSYWMHWVKQRPGQGLEWIGVIDPSDSETILNQKFKDKATLTVDKSSSTAYMQFSSPTSEDSAVYYCARSLDGYYDYWGQGTTLTVSS
VL: DIQMTQSPASLSASVGETVTITCRAGENIYSYLAWYQQKQGKSPQLLVYNAKTLAEGVPSRFSGSASGTQFSLKINSLQPEDFGSYYCQHFWGTPWAFGGGTRLEIK
As for B9, the “Inhibition IC50 of STAT5 reporter gene” value in test [1] came to 13.6 nM. In addition, the IC50 in test [2] worked out at 1.8 nM. In test [3], the Kd came out at 0.0185 nM, the off-rate constant (koff) was determined as 0.000123 s⁻¹ and the kon was 6.62e+06 M⁻¹ s⁻¹. Moreover, in test [4], the IC50 was determined as 1.15 nM. Besides, the EC50 in test [5] stood at 0.15 nM. Further, the EC50 in test [6] amounted to 0.57 nM.

B10: 80B12 chimeric antibody (antibody, V domains shown)
VH: QVQLQQSGPQLVRPGASVKISCKASGYSFTTYWMHWVKQRPGQGLEWIGLIDPSDGEAGLNQNFKDKATLTVDISSRTAYMQISSPTSEDSAVYFCARSLDGYYDYWGQGTTLTVSS
VL: DIQMTQSPASLSASVGETVTITCRASEDIYSYLAWYQQKQGKSPQLLVYNAKTLAEGVPSRFSGSGSGTQFSLKINSLQPEDFGSYYCQHFWSTPWTFGGGTKLELK
For B10, in test [1], the “Inhibition IC50 of STAT5 reporter gene” value was 5.79 nM. Besides, in test [2], the IC50 amounted to 2.58 nM. Also, in test [3], the Kd worked out at 0.0224 nM, the koff is 0.000108 s⁻¹ and the kon amounted to 4.82e+06 M⁻¹ s⁻¹. Besides, the IC50 in [4] was found to be 0.54 nM. Also, the concentration for a half-maximal effect (EC50) in test [5] came to 0.34 nM. For the same molecule, the concentration giving a half-maximal response (EC50) in test [6] was determined as 0.55 nM.

What is called IC50 is the midpoint of a concentration-inhibition curve. For orientation: Kd means the concentration at which binding is half-saturated. A word on the koff: it is the rate constant with which the complex falls apart. As a reminder, the kon is the second-order rate constant of association. The EC50 is the concentration at which the effect is half-maximal.
